From PMC8464079
Changes are numbered by the printed parent chain.

Assays:
Experiment in all cases: fluorescence polarization
MUT-4N = target: T1, MUT-4N (Caenorhabditis elegans, UniProt Q09487 172-535, N318A;H319A;Q322A)
T1 sequence: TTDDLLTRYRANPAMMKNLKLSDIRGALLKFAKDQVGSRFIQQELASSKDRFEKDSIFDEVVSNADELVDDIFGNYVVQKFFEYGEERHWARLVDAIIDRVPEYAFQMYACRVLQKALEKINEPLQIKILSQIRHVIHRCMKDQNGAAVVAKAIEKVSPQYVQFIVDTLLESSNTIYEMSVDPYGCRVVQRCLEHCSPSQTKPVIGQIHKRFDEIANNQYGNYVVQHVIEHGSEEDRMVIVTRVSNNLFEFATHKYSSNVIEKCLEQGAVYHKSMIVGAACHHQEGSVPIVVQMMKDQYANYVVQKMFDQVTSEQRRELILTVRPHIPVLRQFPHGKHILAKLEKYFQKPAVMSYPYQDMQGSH

MUT-#11 (K513A) = target: T2, MUT-#11 (K513A) (Caenorhabditis elegans, UniProt Q09487 172-535, K513A)
T2 sequence: T1 sequence with A147N, A148H, A151Q, K342A

MUT-#10 (Q476E) = target: T3, MUT-#10 (Q476E) (Caenorhabditis elegans, UniProt Q09487 172-535, Q476E)
T3 sequence: T1 sequence with A147N, A148H, A151Q, Q305E

MUT-4A = target: T4, MUT-4A (Caenorhabditis elegans, UniProt Q09487 172-535, N318C;H319R)
T4 sequence: T1 sequence with A147C, A148R, A151Q

MUT-#12 (K513E) = target: T5, MUT-#12 (K513E) (Caenorhabditis elegans, UniProt Q09487 172-535, K513E)
T5 sequence: T1 sequence with A147N, A148H, A151Q, K342E

MUT-4C = target: T6, MUT-4C (Caenorhabditis elegans, UniProt Q09487 172-535, N318C;H319Y;Q322R)
T6 sequence: T1 sequence with A147C, A148Y, A151R

UGUAAAUA (ssRNA) [PBE-5A FAM] gave a Kd (MUT-4N) of 161 ± 22 nM, a Kd (MUT-#11 (K513A)) of 133 ± 29.8 nM and a Kd (MUT-#10 (Q476E)) of 519 ± 63.1 nM. The Kd (MUT-4A) was 0.44 ± 0.39 nM, the Kd (MUT-#12 (K513E)) was 209 ± 29.1 nM and the Kd (MUT-4C) was 16.3 ± 4.64 nM.
